Laboratory results from US20220389394A1 (Gilead, published 2022).
Substitutions are numbered along the chain they refer to. Numbers in names are those of the source. Read-outs that look alike come from different tables or passages of the source.

B1: human FLT3-ligand (Δ10 amino acid) human hingeless IgG1 fusion protein (SEQ ID NO:7) (Fc fusion)
chain: TQDCSFQHSPISSDFAVKIRELSDYLLQDYPVTVASNLQDEELCGGLWRLVLAQRWMERLKTVAGSKMQGLLERVNTEIHFVTKCAFQPPPSCLRFVQTNISRLLQETSEQLVALKPWITRQNFSRCLELQCQPDSSTLPPPWSPRPGGPSVFLFPPKPKDTLMISRTPEVTCVVVDVSHEDPEVKFNWYVDGVEVHNAKTKPREEQYNSTYRVVSVLTVLHQDWLNGKEYKCKVSNKALPAPIEKTISKAKGQPREPQVYTLPPSREEMTKNQVSLTCLVKGFYPSDIAVEWESNGQPENNYKTTPPVLDSDGSFFLYSKLTVDKSRWQQGNVFSCSVMHEALHNHYTQKSLSLSPGK
B2: mouse FLT3-ligand mouse IgG2a (LALA-PG) fusion protein (SEQ ID NO:19) (Fc fusion)
chain: TPDCYFSHSPISSNFKVKFRELTDHLLKDYPVTVAVNLQDEKHCKALWSLFLAQRWIEQLKTVAGSKMQTLLEDVNTEIHFVTSCTFQPLPECLRFVQTNISHLLKDTCTQLLALKPCIGKACQNFSRCLEVQCQPDSSTLLPPRSPIALEATELPEPRGPTIKPCPPCKCPAPNAAGGPSVFIFPPKIKDVLMISLSPIVTCVVVDVSEDDPDVQISWFVNNVEVHTAQTQTHREDYNSTLRVVSALPIQHQDWMSGKEFKCKVNNKDLGAPIERTISKPKGSVRAPQVYVLPPPEEEMTKKQVTLTCMVTDFMPEDIYVEWTNNGKTELNYKNTEPVLDSDGSYFMYSKLRVEKKNWVERNSYSCSVVHEGLHNHHTTKSFSRTPGK
B3: mouse FLT3-ligand mouse IgG2a (C136S LALA-PG) fusion protein (SEQ ID NO:20) (Fc fusion)
chain: B2 chain with C109S
B4: human FLT3-ligand human hingeless IgG1 fusion protein (SEQ ID NO:1) (Fc fusion)
chain: TQDCSFQHSPISSDFAVKIRELSDYLLQDYPVTVASNLQDEELCGGLWRLVLAQRWMERLKTVAGSKMQGLLERVNTEIHFVTKCAFQPPPSCLRFVQTNISRLLQETSEQLVALKPWITRQNFSRCLELQCQPDSSTLPPPWSPRPLEATAPTAPQGGPSVFLFPPKPKDTLMISRTPEVTCVVVDVSHEDPEVKFNWYVDGVEVHNAKTKPREEQYNSTYRVVSVLTVLHQDWLNGKEYKCKVSNKALPAPIEKTISKAKGQPREPQVYTLPPSREEMTKNQVSLTCLVKGFYPSDIAVEWESNGQPENNYKTTPPVLDSDGSFFLYSKLTVDKSRWQQGNVFSCSVMHEALHNHYTQKSLSLSPGK
notes: also called FLT3L ECD-hingeless hG1; hFLT3L ECD
B5: human FLT3-ligand (H8Y+K84E) human hingeless IgG1 fusion protein (SEQ ID NO:24) (Fc fusion)
chain: B4 chain with H8Y, K84E
B6: human FLT3-ligand human IgG1 fusion protein (SEQ ID NO:21) (Fc fusion)
chain: B4 chain with L273K, T288S, P317V, F327R, Y329A, K331Y
B7: human FLT3-ligand (K84E) human hingeless IgG1 fusion protein (SEQ ID NO:23) (Fc fusion)
chain: B4 chain with K84E
B8: human FLT3-ligand (H8Y) human hingeless IgG1 fusion protein (SEQ ID NO:22) (Fc fusion)
chain: B4 chain with H8Y
B9: human FLT3-ligand (S128A/S151A) human hingeless IgG1 fusion protein (SEQ ID NO:5) (Fc fusion)
chain: B4 chain with S102A, S125A
notes: also called Aglyco-FLT3L ECD (S128A/S151A) hingeless hG1
B10: human FLT3-ligand (Δ5 amino acid) human hingeless IgG1 fusion protein (SEQ ID NO:2) (Fc fusion)
chain: TQDCSFQHSPISSDFAVKIRELSDYLLQDYPVTVASNLQDEELCGGLWRLVLAQRWMERLKTVAGSKMQGLLERVNTEIHFVTKCAFQPPPSCLRFVQTNISRLLQETSEQLVALKPWITRQNFSRCLELQCQPDSSTLPPPWSPRPLEATAGGPSVFLFPPKPKDTLMISRTPEVTCVVVDVSHEDPEVKFNWYVDGVEVHNAKTKPREEQYNSTYRVVSVLTVLHQDWLNGKEYKCKVSNKALPAPIEKTISKAKGQPREPQVYTLPPSREEMTKNQVSLTCLVKGFYPSDIAVEWESNGQPENNYKTTPPVLDSDGSFFLYSKLTVDKSRWQQGNVFSCSVMHEALHNHYTQKSLSLSPGK
notes: also called FLT3L ECD (Δ C-term 5aa (PTAPQ)) - hingeless hG1

Legend:
[1] = target: T1, his-tagged recombinant human Flt3 receptor (Sino Biologicals) (human, UniProt P36888 27-541, limits assumed); test: ELISA; His-tagged recombinant human Flt3 on nickel plate, serially diluted Flt3L-Fc, anti-human (H+L)-HRP, 4PL fit
T1 construct: Bought protein; also called human recombinant FLT3; not shown: His tag
T1 sequence (looked up): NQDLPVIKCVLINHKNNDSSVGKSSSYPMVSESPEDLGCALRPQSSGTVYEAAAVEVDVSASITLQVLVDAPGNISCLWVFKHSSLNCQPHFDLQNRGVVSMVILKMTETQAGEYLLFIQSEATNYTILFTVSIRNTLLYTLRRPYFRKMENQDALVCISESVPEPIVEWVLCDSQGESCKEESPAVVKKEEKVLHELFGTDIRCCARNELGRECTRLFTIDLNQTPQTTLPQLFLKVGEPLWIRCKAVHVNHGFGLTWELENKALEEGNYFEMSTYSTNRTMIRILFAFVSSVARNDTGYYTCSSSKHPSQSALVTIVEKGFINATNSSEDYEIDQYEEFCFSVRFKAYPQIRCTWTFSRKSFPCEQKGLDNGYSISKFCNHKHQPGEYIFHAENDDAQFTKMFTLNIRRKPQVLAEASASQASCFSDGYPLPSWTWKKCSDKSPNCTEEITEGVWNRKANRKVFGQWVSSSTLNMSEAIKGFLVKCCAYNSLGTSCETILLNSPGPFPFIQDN
Excerpt: Graph is a result of one experiment.
(§1) Signal was developed using TMB substrate then quenched prior to reading absorbance at 450 nm on a SpectraMax plate reader.

[2] = target: T2, recombinant human C1q protein (Fitzgerald) (human, UniProt P02745 23-245; P02746 28-253; P02747 29-245, limits assumed); test: ELISA, test article immobilized, C1q added; text: devoid of C1q binding ability
T2 construct: also called human recombinant complement protein, C1q

[3] = target: T3, human FLT3 on the AML5 cell line (human, UniProt P36888 27-993); test: cell-based or functional assay
T3 sequence (looked up): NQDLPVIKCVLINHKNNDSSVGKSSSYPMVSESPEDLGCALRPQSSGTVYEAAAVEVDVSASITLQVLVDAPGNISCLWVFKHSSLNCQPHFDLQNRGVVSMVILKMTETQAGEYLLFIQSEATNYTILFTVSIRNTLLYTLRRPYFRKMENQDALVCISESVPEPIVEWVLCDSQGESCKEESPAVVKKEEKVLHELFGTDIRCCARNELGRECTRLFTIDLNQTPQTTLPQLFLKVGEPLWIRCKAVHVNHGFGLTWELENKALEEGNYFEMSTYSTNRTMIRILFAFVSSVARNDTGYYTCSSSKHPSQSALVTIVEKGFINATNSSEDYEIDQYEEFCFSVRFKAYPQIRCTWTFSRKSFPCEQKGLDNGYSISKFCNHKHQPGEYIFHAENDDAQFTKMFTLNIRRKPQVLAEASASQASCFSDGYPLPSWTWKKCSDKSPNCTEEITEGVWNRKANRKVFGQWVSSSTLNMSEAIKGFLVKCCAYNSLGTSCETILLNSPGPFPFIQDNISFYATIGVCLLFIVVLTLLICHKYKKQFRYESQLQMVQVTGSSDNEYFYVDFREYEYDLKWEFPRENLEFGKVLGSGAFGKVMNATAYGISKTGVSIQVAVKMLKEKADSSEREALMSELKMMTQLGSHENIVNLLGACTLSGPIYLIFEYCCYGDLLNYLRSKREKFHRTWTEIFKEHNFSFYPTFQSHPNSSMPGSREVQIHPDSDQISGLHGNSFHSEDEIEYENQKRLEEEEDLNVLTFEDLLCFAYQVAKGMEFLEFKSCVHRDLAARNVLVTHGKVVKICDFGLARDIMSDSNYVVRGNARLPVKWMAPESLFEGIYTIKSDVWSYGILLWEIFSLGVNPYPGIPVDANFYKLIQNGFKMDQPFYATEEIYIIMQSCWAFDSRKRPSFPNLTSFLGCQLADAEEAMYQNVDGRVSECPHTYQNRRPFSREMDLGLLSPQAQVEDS

recombinant human FcRn [4] = target: T4, recombinant human FcRn (human, UniProt P55899 24-297; P61769 21-119, limits assumed); test: ELISA; recombinant human FcRn coated, serially diluted test article, anti-human (H+L)-HRP, 4PL fit; estimate, no saturating signal
T4 construct: a beta-2-microglobulin chain is not mentioned; also called human recombinant FcRn
Experimental: (§2) Graph is a result of one experiment. Experiment was performed in duplicate. Error bars represent standard deviation of the mean values.
(§3) Signal was developed using TMB substrate then quenched prior to reading absorbance at 450-650 nm on a SpectraMax plate reader.

[5] = target: T3, human FLT3 on the AML5 cell line; test: cell-based or functional assay; remark: listed apart in the source
recombinant human FcRn [6] = target: T4, recombinant human FcRn; test: ELISA; recombinant human FcRn coated, serially diluted test article, anti-human (H+L)-HRP, 4PL fit
Experimental: as §2, §3

[7] = target: T3, human FLT3 on the AML5 cell line; test: cell-based or functional assay; remark: listed apart in the source
[8] = target: T3, human FLT3 on the AML5 cell line; test: cell-based or functional assay; remark: listed apart in the source
[9] = target: T1, his-tagged recombinant human Flt3 …; test: ELISA; His-tagged recombinant human Flt3 on nickel plate, serially diluted Flt3L-Fc, anti-human (H+L)-HRP, 4PL fit; remark: listed apart in the source
Experimental: as §2, §1

[10] = target: T3, human FLT3 on the AML5 cell line; test: cell-based or functional assay; remark: listed apart in the source
[11] = target: T3, human FLT3 on the AML5 cell line; test: cell-based or functional assay; remark: listed apart in the source

T4 sequence (P55899 24-297 limits assumed, chain 1 of 2): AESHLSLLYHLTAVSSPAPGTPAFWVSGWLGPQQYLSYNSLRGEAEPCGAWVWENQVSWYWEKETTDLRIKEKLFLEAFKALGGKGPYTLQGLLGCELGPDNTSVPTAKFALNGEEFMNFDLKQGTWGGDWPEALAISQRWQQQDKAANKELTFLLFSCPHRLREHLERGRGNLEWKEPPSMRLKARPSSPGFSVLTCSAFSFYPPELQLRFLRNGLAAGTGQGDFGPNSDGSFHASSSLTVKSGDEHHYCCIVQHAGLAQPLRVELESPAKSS
T4 sequence (P61769 21-119 limits assumed, chain 2 of 2): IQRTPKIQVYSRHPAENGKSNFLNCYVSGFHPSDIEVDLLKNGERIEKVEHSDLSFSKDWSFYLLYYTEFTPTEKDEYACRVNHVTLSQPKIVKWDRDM
T2 sequence (P02745 23-245 limits assumed, chain 1 of 3): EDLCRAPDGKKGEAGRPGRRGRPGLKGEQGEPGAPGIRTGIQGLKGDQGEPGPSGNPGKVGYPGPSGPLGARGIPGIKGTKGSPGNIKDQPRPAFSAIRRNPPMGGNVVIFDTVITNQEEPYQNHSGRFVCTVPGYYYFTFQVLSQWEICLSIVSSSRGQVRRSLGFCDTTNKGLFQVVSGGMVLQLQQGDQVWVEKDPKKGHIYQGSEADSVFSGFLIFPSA
T2 sequence (P02746 28-253 limits assumed, chain 2 of 3): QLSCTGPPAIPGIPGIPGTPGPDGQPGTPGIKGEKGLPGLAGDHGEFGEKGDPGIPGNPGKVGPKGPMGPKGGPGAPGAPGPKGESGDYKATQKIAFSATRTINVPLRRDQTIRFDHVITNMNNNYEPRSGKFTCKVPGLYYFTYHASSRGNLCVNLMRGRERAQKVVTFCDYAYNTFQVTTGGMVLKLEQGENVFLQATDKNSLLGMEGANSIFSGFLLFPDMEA
T2 sequence (P02747 29-245 limits assumed, chain 3 of 3): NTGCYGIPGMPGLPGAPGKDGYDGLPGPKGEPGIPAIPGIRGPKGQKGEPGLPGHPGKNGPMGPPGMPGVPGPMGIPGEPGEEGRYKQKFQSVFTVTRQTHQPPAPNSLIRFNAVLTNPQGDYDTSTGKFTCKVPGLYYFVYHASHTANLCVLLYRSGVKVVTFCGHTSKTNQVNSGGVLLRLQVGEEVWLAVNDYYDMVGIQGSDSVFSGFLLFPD

| Binder | EC50 [1] [nM] | binding result [2] | EC50 (nM), AML5 proliferation [3] [nM] | EC50 (recombinant human FcRn [4]) [nM] | EC50 (nM), AML5 proliferation [5] [nM] | EC50 (nM), AML5 proliferation [7] [nM] | potency in AML5 proliferation, fold against SEQ ID NO:1 [11] [fold] | also measured |
| --- | --- | --- | --- | --- | --- | --- | --- | --- |
| B1 | 0.12 | no binding (tested: 94 nM (highest of the titration)) | 0.071 | ~158 |  |  |  |  |
| B2 |  |  |  |  | 0.171 |  |  |  |
| B3 |  |  |  |  | 0.115 |  |  |  |
| B4 | 0.12 | no binding (tested: 94 nM (highest of the titration)) | 0.08 | ~151 | 0.078 | 0.034 |  | EC50 (recombinant human FcRn [6]): 2330 nM; EC50 (nM), AML5 proliferation [8]: 0.05 nM; EC50 [9]: 0.81 nM; EC50 (nM), AML5 proliferation [10]: 0.04 nM |
| B5 |  |  |  |  |  | 0.013 | ~2.5 |  |
| B6 |  |  |  |  |  |  |  | EC50 (nM), AML5 proliferation [10]: 0.035 nM |
| B7 |  |  |  |  |  | 0.013 | ~2.5 |  |
| B8 |  |  |  |  |  | 0.014 | ~2.5 |  |
| B9 | 0.11 | no binding (tested: 94 nM (highest of the titration)) | 0.078 | ~133 |  |  |  |  |
| B10 | 0.13 | no binding (tested: 94 nM (highest of the titration)) | 0.083 | ~300 |  |  |  |  |
